# Patent publication US20160032013A1 (Genentech, published 2016)
# Residue numbers refer to the chain shown, from its start. Numbers in names are those of the source.
# B1: Full length human MSP 689R (wild type + C672A + His tag), active two-chain form (ligand)
# chain 1: QRSPLNDFQVLRGTELQHLLHAVVPGPWQEDVADAEECAGRCGPLMDCRAFHYNVSSHGCQLLPWTQHSPHTRLRRSGRCDLFQKKDYVRTCIMNNGVGYRGTMATTVGGLPCQAWSHKFPNDHKYTPTLRNGLEENFCRNPDGDPGGPWCYTTDPAVRFQSCGIKSCREAACVWCNGEEYRGAVDRTESGRECQRWDLQHPHQHPFEPGKFLDQGLDDNYCRNPDGSERPWCYTTDPQIEREFCDLPRCGSEAQPRQEATTVSCFRGKGEGYRGTANTTTAGVPCQRWDAQIPHQHRFTPEKYACKDLRENFCRNPDGSEAPWCFTLRPGMRAAFCYQIRRCTDDVRPQDCYHGAGEQYRGTVSKTRKGVQCQRWSAETPHKPQFTFTSEPHAQLEENFCRNPDGDSHGPWCYTMDPRTPFDYCALRRCADDQPPSILDPPDQVQFEKCGKRVDRLDQRRSKLR
# chain 2: VVGGHPGNSPWTVSLRNRQGQHFCGGSLVKEQWILTARQCFSSCHMPLTGYEVWLGTLFQNPQHGEPSLQRVPVAKMVCGPSGSQLVLLKLERSVTLNQRVALICLPPEWYVVPPGTKCEIAGWGETKGTGNDTVLNVALLNVISNQECNIKHRGRVRESEMCTEGLLAPVGACEGDYGGPLACFTHNAWVLEGIIIPNRVCARSRWPAVFTRVSVFVDWIHKVMRLGHHHHHH
# notes: Pro-MSP converted with sHepsin into the disulfide-linked alpha/beta heterodimer; Numbering is that of pro-MSP; also called full-length MSP; human full-length MSP
# B2: Full length human MSP R689C (wild type + C672A + R689C + His tag), active two-chain form (ligand)
# chain 1: B1 chain 1
# chain 2: B1 chain 2 with R206C
# B3: Human MSP β 689R with wild-type C672 (HGF leader + V484-G711 + C588S + C672C + His tag) (ligand)
# chain: B1 chain 2 with C105S, A189C
# B4: Human MSP β R689C with wild-type C672 (HGF leader + V484-G711 + C588S + C672C + R689C + His tag) (ligand)
# chain: B1 chain 2 with C105S, A189C, R206C
# Tests used:
# [1] = target: T1, Human RON on cells (3T3-hRON, A2780-hRON, BxPC3, human primary colon cells) (human, UniProt Q04912 25-1400); experiment: radioligand binding to 3T3-hRON cells for 2 h at room temperature
# T1 construct: That is its entry for human RON
# Method: (§1) MSP proteins were iodinated using the Iodogen method (Thermo Scientific) and purified from free Na¹²⁵I by gel filtration using a NAP-5 column. Specific activities ranged from 12.26 to 18.65 μCi/μg. Competition reaction mixtures were made of a fixed concentration of iodinated MSP and unlabeled MSP serially diluted 1- to 2-fold ten times starting at 5 μM in a volume of 50 μL. 3T3-hRon cells were washed with binding buffer, consisting of DMEM with 1% bovine serum albumin, 325 nM human IgG, 50 mM HEPES (pH 7.2) and 0.1% sodium azide. 150,000 cells in 0.2 ml binding buffer were added to competition reaction mixtures. Competition reactions with cells were incubated for 2 h at room temperature and transferred to a Multiscreen filter plate (Millipore) and washed 4 times with binding buffer. Filters were counted on a Wallac Wizard 1470 gamma counter (PerkinElmer Life and Analytical Sciences). Binding affinities were determined using NewLigand software (Genentech, Inc) (Munson et al., 1980, Anal Biochem 107:220-39).
# [2] = target: T2, Human RON-hIgG1 Fc (RON Sema/PSI/IPT1 fused to human IgG1 Fc) (human); experiment: plate binding assay, plate-bound RON-Fc, soluble His-tagged MSP, anti-His-HRP, 4-parameter fit
# T2 construct: also called RON-Fc; hRON-Fc
# Text: (§2) Means of three replicates per group are shown. […] C presents results of SPR analysis of MSP proteins binding to immobilized RON Sema/PSI, showing relative response in response units. Data are representative of three independent experiments. […] Competition binding to 3T3-hRON cells (large graphs) used to generate affinities and Scatchard plots (inset graphs) are shown. Mean+/−standard deviation (SD) of three independent experiments is shown. E is a homology model of the structure of RON Sema/PSI (PDB code 4FWW) shown at the bottom, which binds to MSP β (PDB code 2ASU) shown on top. RON and MSP β were globally aligned to the Met/HGF β complex (PDB code 1SHY). Predicted locations of the MSP β contact residues within 4 Å of RON are marked by asterisks. […]
# (§3) MaxiSorp plates (Nalge Nunc International) were coated overnight at 4° C. with 2 μg/ml of rabbit anti-human IgG Fc specific antibody (Jackson ImmunoResearch Laboratories) in 50 mM sodium carbonate buffer, pH 9.6. […] Bound MSP was detected using anti-His-HRP (Qiagen Inc.) followed by addition of TMB/H₂O₂ substrate (Thermo Scientific). The reaction was stopped with 1M H₃PO₄ and the absorbance at 450 nm (A₄₅₀) was measured on a SpectraMax Plus³⁸⁴ plate reader (Molecular Devices, LLC). The half maximal effective concentration of MSP (EC₅₀) was determined by a 4-parameter fit using Kaleidagraph (Synergy Software).
# [3] = target: T1, Human RON on cells (3T3-hRON, …); experiment: radioligand competition binding on 3T3-hRON cells: fixed 125I-MSP 689R as competitor, unlabeled MSP 689R titrated [Continued) D]
# Method: as §1
# [4] = target: T1, Human RON on cells (3T3-hRON, …); experiment: radioligand binding to 3T3-hRON cells for 4 h on ice
# [5] = target: T2, Human RON-hIgG1 Fc (RON Sema/PSI/IPT1 …); experiment: SPR capturing RON-Fc at 25 C
# Method: To determine MSP protein binding kinetics to hRON-Fc or mRON-Fc fusion proteins, between 50 and 100 response units (RU) were captured on each of three immobilized anti-human Fc surfaces. Various concentrations (50-0.78 nM, 2-fold dilution series) of MSP, MSP β, MSP α or scMSP were injected in HBS-P buffer (10 mM HEPES, pH 7.5, 150 mM NaCl, 0.005% P20) at 25° C. with a flow rate of 30 μL/min and dissociation monitored for 4 min. Between measurements, the biosensor surfaces were regenerated with a 2 min pulse of 10 mM glycine-HCl pH 1.5.
# [6] = target: T3, Recombinant human RON Sema/PSI (residues E25-P568) with C-terminal His-tag (human, UniProt Q04912 25-568); experiment: SPR using immobilized RON Sema/PSI at 25 C
# T3 construct: Made in Trichoplusia ni insect cells
# [7] = target: T1, Human RON on cells (3T3-hRON, …); experiment: radioligand competition binding on 3T3-hRON cells: fixed 125I-MSP 689C as competitor, unlabeled MSP 689C titrated [Continued) D]
# Method: as §1
# [8] = target: T2, Human RON-hIgG1 Fc (RON Sema/PSI/IPT1 …); experiment: BLI using RON-Fc at 30 C
# Method: Real-time kinetic measurements of MSP binding to RON were conducted using an Octet RED384 (ForteBio, Inc). Samples or buffer were dispensed into 96-well microtiter plates (Greiner Bio-One North America, Inc.) at a volume of 200 μl per well. Anti-human IgG Fc Biosensors were used for the experiments. Each experiment consisted of three steps: incubation with ForteBio Kinetic buffer diluted 1:10 in PBS assay buffer to establish an equilibrium for 120 s (baseline), incubation with 10 μg/ml RON-Fc in assay buffer to coat the biosensor with binding target for 900 s (load), incubation with MSP, MSP β or scMSP in assay buffer containing various concentrations (75-4.7 nM, 2-fold dilution series) for 400 s (association), and incubation with assay buffer to measure the off-rate of MSP for 400 s (dissociation). Operating temperature was maintained at 30° C. Data were generated automatically by the Octet Data Acquisition 7.0 software. Each data set was fitted globally to a simple one-to-one binding model using ForteBio Analysis Software 7.0 to determine the kinetic parameters kₐ and kd. The equilibrium dissociation constants (KD) were then calculated as a ratio (koff/kₒₙ) of these rate constants.
# [9] = target: T2, Human RON-hIgG1 Fc (RON Sema/PSI/IPT1 …); experiment: plate binding assay, plate-bound RON-Fc, soluble His-tagged MSP β, anti-His-HRP, 4-parameter fit
# Text: as §2, §3
# T2 sequence (chain, as listed by the source limits assumed): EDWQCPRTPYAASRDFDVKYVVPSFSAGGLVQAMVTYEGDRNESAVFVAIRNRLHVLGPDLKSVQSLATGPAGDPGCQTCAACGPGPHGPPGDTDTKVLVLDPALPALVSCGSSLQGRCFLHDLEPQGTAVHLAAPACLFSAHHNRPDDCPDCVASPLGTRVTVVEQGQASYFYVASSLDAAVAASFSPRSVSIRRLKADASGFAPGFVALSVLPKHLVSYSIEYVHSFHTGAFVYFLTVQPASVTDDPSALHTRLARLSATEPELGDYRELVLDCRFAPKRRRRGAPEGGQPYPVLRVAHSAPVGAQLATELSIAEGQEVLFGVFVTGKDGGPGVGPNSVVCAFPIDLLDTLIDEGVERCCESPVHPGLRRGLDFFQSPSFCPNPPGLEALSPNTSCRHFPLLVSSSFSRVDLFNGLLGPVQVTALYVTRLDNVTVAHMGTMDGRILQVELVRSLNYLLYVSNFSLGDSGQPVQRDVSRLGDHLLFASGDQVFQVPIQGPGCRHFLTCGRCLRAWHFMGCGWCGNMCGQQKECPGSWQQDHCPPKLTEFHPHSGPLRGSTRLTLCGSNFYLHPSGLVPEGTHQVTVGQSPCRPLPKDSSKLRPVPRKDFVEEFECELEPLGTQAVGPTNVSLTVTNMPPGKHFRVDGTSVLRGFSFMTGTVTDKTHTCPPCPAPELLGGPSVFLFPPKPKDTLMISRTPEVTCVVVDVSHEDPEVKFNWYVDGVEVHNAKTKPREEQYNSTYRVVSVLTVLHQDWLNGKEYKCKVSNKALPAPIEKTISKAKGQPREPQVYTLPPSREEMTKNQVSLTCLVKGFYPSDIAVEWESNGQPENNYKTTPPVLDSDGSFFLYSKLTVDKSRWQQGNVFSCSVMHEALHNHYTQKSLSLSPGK
Binder,Kd [1],EC50 [2],IC50 (read off the curve) [3],Kd [4],Kd [5],koff [5],kon [5],Kd [6],koff [6],kon [6],IC50 (read off the curve) [7],Kd [8],EC50 [9]
B1,12.6 nM,0.1 nM,~10 nM,23 nM,–,–,–,–,–,–,–,–,–
B2,13 nM,0.2 nM,–,25.7 nM,9.6 nM,~0.0016 s⁻¹,~170000 M⁻¹ s⁻¹,9.6 nM,0.0012 s⁻¹,116000 M⁻¹ s⁻¹,~10 nM,9.4 nM,–
B3,–,–,–,–,–,–,–,–,–,–,–,–,0.05 nM
B4,–,–,–,–,9.7 nM,0.0079 s⁻¹,870000 M⁻¹ s⁻¹,–,–,–,–,–,0.1 nM
